Patent publication US20060218667A1

Biological target: porcine trypsin (porcine) (UniProt P00761)
Experiment: cell-based or functional assay

Chain of UniProt P00761 (P00761 9-231 limits assumed): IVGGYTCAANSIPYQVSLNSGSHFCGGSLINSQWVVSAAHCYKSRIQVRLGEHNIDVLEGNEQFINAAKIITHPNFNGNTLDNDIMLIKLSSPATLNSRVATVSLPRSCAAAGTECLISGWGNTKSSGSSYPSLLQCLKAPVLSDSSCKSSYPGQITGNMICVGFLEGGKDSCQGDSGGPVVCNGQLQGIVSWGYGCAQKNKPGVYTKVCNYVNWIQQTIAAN

With “r-Aprotinin-L (aprotinin variant with Met 52 replaced by leucine)” the KIU/mg Protein (specific activity) (KIU/mg protein) was 7150.

“r-Aprotinin-Q (aprotinin variant with Met 52 replaced by glutamine)” showed a KIU/mg Protein (specific activity) (KIU/mg protein) of 7220.

Substance “r-Aprotinin-V (aprotinin variant with Met 52 replaced by valine)” has a KIU/mg Protein (specific activity) (KIU/mg protein) of 7160.
